Data taken from article PMC6797848, “A TBR1-K228E Mutation Induces Tbr1 Upregulation, Altered Cortical Distribution of Interneurons, Increased Inhibitory Synaptic Transmission, and Autistic-Like Behavioral Deficits in Mice”.
Numbering of substitutions follows the chain as printed.

Tests used:
Details in all cases: protein: recombinant; tags: N-terminal His6 removed by thrombin (pET28a, NdeI/HindIII); label: 5'-biotin on strand 1
TBR1 T-box domain N374H = biological target: T1, TBR1 T-box domain N374H (human, UniProt Q16650 200-400, N374H); assay: BLI; n=3; stated as no effect on affinity; Kd only plotted in figure; BLI (BLITZ, streptavidin sensor): kinetic buffer 20 mM HEPES pH 7.5, 100 mM NaCl, 25 C (stated for sensor hydration/equilibration); protein stock in 20 mM HEPES pH 7.5, 150 mM NaCl, 5 mM MgCl2
T1 sequence: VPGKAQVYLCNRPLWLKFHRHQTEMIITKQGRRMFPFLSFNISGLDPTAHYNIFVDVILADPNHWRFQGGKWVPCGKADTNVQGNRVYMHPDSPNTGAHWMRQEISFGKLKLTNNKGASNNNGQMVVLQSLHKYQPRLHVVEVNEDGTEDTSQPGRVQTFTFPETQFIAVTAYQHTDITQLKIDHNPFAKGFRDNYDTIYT

TBR1 T-box domain K228E = biological target: T2, TBR1 T-box domain K228E (human, UniProt Q16650 200-400, K228E); assay: BLI; n=3; Kd only plotted in figure; BLI (BLITZ, streptavidin sensor): kinetic buffer 20 mM HEPES pH 7.5, 100 mM NaCl, 25 C (stated for sensor hydration/equilibration); protein stock in 20 mM HEPES pH 7.5, 150 mM NaCl, 5 mM MgCl2
T2 sequence: T1 sequence with K29E, H175N

[1] = biological target: T3, TBR1 T-box domain WT (hTBR1DBD) (human, UniProt Q16650 200-400); assay: BLI; protein 2.5-10 uM; Kd only plotted in figure; BLI (BLITZ, streptavidin sensor): kinetic buffer 20 mM HEPES pH 7.5, 100 mM NaCl, 25 C (stated for sensor hydration/equilibration); protein stock in 20 mM HEPES pH 7.5, 150 mM NaCl, 5 mM MgCl2
T3 sequence: T1 sequence with H175N

B1: Grin2b-promoter probe (dsDNA)
DNA 1: TATATAGGTTGAGTGGCACGTTCCTGGGTGTGAGACC
DNA 2: GGTCTCACACCCAGGAACGTGCCACTCAA
For B1, the binding signal (TBR1 T-box domain N374H) was about 1 fold Kd vs WT, the binding signal (TBR1 T-box domain K228E) was about 3 fold increase in Kd vs WT and the binding result [1] was “binds”.
